Values of other authors, collected in paper PMC7425896, “Polypeptides derived from α-Synuclein binding partners to prevent α-Synuclein fibrils interaction with and take-up by cells” (PLoS ONE, 2020).

Target: α-Synuclein fibrils (Homo sapiens) (UniProt P37840)
Test: sedimentation assay

## Hsc70 (from UniProt P11142)
  Kd: 100 nM
